Measurements as given in article PMC12407318.

B1: Annexin A2 (Anxa2): S22A (protein)
parent chain: MSTVHEILCKLSLEGDHSTPPSAYGSVKPYTNFDAERDALNIETAVKTKGVDEVTIVNILTNRSNVQRQDIAFAYQRRTKKELPSALKSALSGHLETVILGLLKTPAQYDASELKASMKGLGTDEDSLIEIICSRTNQELQEINRVYKEMYKTDLEKDIISDTSGDFRKLMVALAKGRRAEDGSVIDYELIDQDARELYDAGVKRKGTDVPKWISIMTERSVCHLQKVFERYKSYSPYDMLESIKKEVKGDLENAFLNLVQCIQNKPLYFADRLYDSMKGKGTRDKVLIRIMVSRSEVDMLKIRSEFKRKYGKSLYYYIQQDTKGDYQKALLYLCGGDD
B2: Annexin A2 (Anxa2): S26A (protein)
parent chain: B1 parent chain

Assay: sheep red blood cell hemolysis, OD542
Details: glycan lost; control: WT Anxa2

Row | Protein | other: MBL-MASP complement activation
1 | B1 | decreases
2 | B2 | decreases
